These results are taken from publication PMC3807529 (Biochemistry, 2013).

Assay [1] has as its target T1, ataxin-3 fragment containing all three UIM sequences (residues 194-361, UIM_123) (human, UniProt P54252 194-361). The assay is described as follows: NMR titration.
In assay [2] the target is T1, ataxin-3 fragment containing all three …. Kind of assay: NMR titration. This is another data set of the same source.

T1 sequence (P54252 194-361): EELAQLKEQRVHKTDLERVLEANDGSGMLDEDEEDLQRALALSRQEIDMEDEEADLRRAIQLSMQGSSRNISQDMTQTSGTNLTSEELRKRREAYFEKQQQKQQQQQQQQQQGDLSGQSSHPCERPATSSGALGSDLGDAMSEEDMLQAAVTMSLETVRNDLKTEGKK

B1: human parkin ubiquitin-like domain (residues 1-77) (domain or fragment, UniProt O60260 1-77, looked up)
chain: MIVFVRFNSSHGFPVEVDSDTSIFQLKEVVAKRQGVPADQLRVIFAGKELRNDWTVQNCDLDQQSIVHIVQRPWRKG
By Kd is commonly meant the free concentration of one partner at which half of the binding sites on the other are occupied at equilibrium, for simple one-to-one binding. The low end stands for tighter binding, the high end for weaker binding. As to B1, the “KD of each individual UIM (UIM1, UIM2, UIM3) in UIM_123” value in assay [1] is greater than 1000 µM. The same molecule showed a Kd in assay [2] of 236 ± 14 µM.
